According to US20180142226:
Numbering of substitutions follows the chain as printed.

T1: 33mer peptide of α-gliadin
T1 chain: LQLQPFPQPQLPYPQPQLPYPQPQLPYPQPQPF

T2: 26mer peptide of γ-gliadin
T2 chain: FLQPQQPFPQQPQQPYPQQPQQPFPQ

T3: W02-E07
T3 chain: LQPFPQPQLPYPQPQ

T4: B08-E2E7
T4 chain: PQQPIPQQPQPYPQQ

T5: W03-E07
T5 chain: QPFPQPQQPFPWQP

T6: R11-E4E7
T6 chain: QPFPQQPEQIIPQQP

B1: Kuma020 (protein)
chain: AAPTAYTPLDVAQAYQFPEGLDGQGQCIAIIELGGGYDEASLAQYFASLGVPAPQVVSVSVDGASNQPTGDPKGPDGEVELDIEVAGALAPGAKFAVYFAPDTTAGFLDAITTAIHDPTLKPSVVSISWSGPEDSWTSAAIAAMNRAFLDAAALGVTVLAAAGDSGSTSGEQDGLYHVHFPAASPYVLACGGTRLVASGGRIAQETVWNDGPDGGATGGGVSRIFPLPAWQEHANVPPSANPGASSGRGVPDLAGNADPATGYEVVIDGEATVTGGTSAVAPLFAALVARINQKLGKAVGYLNPTLYQLPADVFHDITEGNNDIANRAQIYQAGPGWDPCTGLGSPIGVRLLQALLPSASQPQPGSTENLYFQSGALEHHHHHH
B2: Kuma030 (protein)
chain: B1 chain with K73E, E80T, S165Q, D210Q, A260Q
B3: Kuma040 (protein)
chain: B1 chain with E80T, S130A, S169G, H179F, D210Q, A260Q
B4: Kuma050 (protein)
chain: B1 chain with K73E, E80T, L81V, S165Q, D210Q, A260Q, T274I
B5: Kuma021 (protein)
chain: AAPTAYTPLDVAQAYQFPEGLDGQGQCIAIIELGGGYDEASLAQYFASLGVPAPQVVSVSVDGASNQPTGDPKGPDGEVELDIEVAGALAPGAKFAVYFAPDTTAGFLDAITTAIHDPTLKPSVVSISWSGPEDSWTSAAIAAMNRAFLDAAALGVTVLAAAGDSGSTSGEQDGLYHVHFPAASPYVLACGGTRLVASGGRIAQETVWNQGPDGGATGGGVSRIFPLPAWQEHANVPPSANPGASSGRGVPDLAGNADPQTGYEVVIDGEATVTGGTSAVAPLFAALVARINQKLGKAVGYLNPTLYQLPADVFHDITEGNNDIANRAQIYQAGPGWDPCTGLGSPIGVRLLQALLPSASQPQP
B6: Kuma032 (protein)
chain: B5 chain with K73E, E80T, S165Q
B7: Kuma042 (protein)
chain: B5 chain with E80T, S130A, S169G, H179F

Legend:
[1] = molecular target: T1, 33mer peptide of α-gliadin
[2] = molecular target: T2, 26mer peptide of γ-gliadin
W02-E07 = molecular target: T3, W02-E07
B08-E2E7 = molecular target: T4, B08-E2E7
W03-E07 = molecular target: T5, W03-E07
R11-E4E7 = molecular target: T6, R11-E4E7

Protein | appearance of peptide breakdown products over time [1] | appearance of peptide breakdown products over time [2] | Kcat (DQ2.5-glia-ω1) [s⁻¹] | Km (DQ2.5-glia-ω1) [mM] | Vmax (DQ2.5-glia-ω1) [M/s] | kcat/Km (DQ2.5-glia-ω1) [M⁻¹ s⁻¹] | Kcat (DQ2.5-glia-α1a) [s⁻¹] | Km (DQ2.5-glia-α1a) [mM] | Vmax (DQ2.5-glia-α1a) [M/s] | kcat/Km (DQ2.5-glia-α1a) [M⁻¹ s⁻¹] | other results
B1 | Kuma020 demonstrated a moderate amount of activity on both peptides | Kuma020 demonstrated a moderate amount of activity on both peptides | – | – | – | – | – | – | – | – | Activity Improvement over Background (Kuma010) (peptides containing PQQ): 15-35x (PQQ); Activity Improvement over Background (Kuma010) (peptides containing PQL): 7-19x (PQL)
B2 | In both cases, Kuma030 was the dominant enzyme tested | In both cases, Kuma030 was the dominant enzyme tested | 27.3 | 8.4 | 2.73e-06 | 3270 | 17.4 | 1.9 | 1.74e-06 | 9030 | Activity Improvement over Background (Kuma021) (peptides containing PQQ): 1.2-2x (PQQ); activity relative to Kuma010 (peptides containing PQQ): 44-fold more active against peptides containing PQQ; activity relative to Kuma040 (peptides containing PQQ): Kuma030 is 2-fold more active on PQQ, and 2-fold less active on PQL, than Kuma040; cleavage products by mass spectroscopy [1]: Kuma030 cleaved each peptide after the PQ dipeptide motif; cleavage products by mass spectroscopy (W02-E07): Kuma030 cleaved each peptide after the PQ dipeptide motif; Activity Improvement over Background (Kuma021) (peptides containing PQL): 1.2-2x (PQL); activity relative to Kuma010 (peptides containing PQL): 11-fold more active against peptides containing PQL; activity relative to Kuma040 (peptides containing PQL): Kuma030 is 2-fold more active on PQQ, and 2-fold less active on PQL, than Kuma040; cleavage products by mass spectroscopy (B08-E2E7): Kuma030 cleaved each peptide after the PQ dipeptide motif; cleavage products by mass spectroscopy (W03-E07): Kuma030 cleaved each peptide after the PQ dipeptide motif; cleavage products by mass spectroscopy (R11-E4E7): Kuma030 cleaved each peptide after the PQ dipeptide motif
B3 | Kuma040 demonstrated activity almost as potent as Kuma030 especially against the 26mer peptide | Kuma040 demonstrated activity almost as potent as Kuma030 especially against the 26mer peptide | 24.6 | 15.3 | 2.46e-06 | 1600 | 16.3 | 0.86 | 1.49e-06 | 19100 | Activity Improvement over Background (Kuma010) (peptides containing PQQ): 30-40x (PQQ);; Activity Improvement over Background (Kuma010) (peptides containing PQL): 35-50x (PQL)
B4 | Kuma050 demonstrated good activity on the 33mer peptide | very poor activity on the 26mer peptide | 27.8 | 5 | 2.78e-06 | 56 | 14.2 | 2.5 | 1.42e-06 | 5610 | Activity Improvement over Background (Kuma021) (peptides containing PQQ): 0.01-0.2x (PQQ); Activity Improvement over Background (Kuma021) (peptides containing PQL): 1.5-2x (PQL)
B5 | – | – | – | – | – | – | – | – | – | – | Activity Improvement over Background (Kuma020) (peptides containing PQQ): 1.2-2.5x (PQQ); Activity Improvement over Background (Kuma020) (peptides containing PQL): 1-2x (PQL)
B6 | – | – | – | – | – | – | – | – | – | – | Activity Improvement over Background (Kuma031) (peptides containing PQL): No change (PQL);; concentration of peptide breakdown product PFPQPQ over time (DQ2.5-glia-α1a): Kuma032 and Kuma042 demonstrate comparable activity as Kuma030 and Kuma040
B7 | – | – | – | – | – | – | – | – | – | – | Activity Improvement over Background (Kuma041) (peptides containing PQL): 1.2-1.5x (PQL); concentration of peptide breakdown product PFPQPQ over time (DQ2.5-glia-α1a): Kuma042 even shows a slight increase in activity against this substrate compared to Kuma040
